In experiment [1] the target is T1, human Bfl-1 (c-myc-tagged) (human, UniProt Q16548 1-151, limits assumed).
T1 construct: c-myc-tagged in the fluorescence polarization and yeast-display assays; the same entry is used for them; also called c-myc-Bfl-1; Myc-tagged Bfl-1; not shown: c-myc tag
T1 sequence (looked up): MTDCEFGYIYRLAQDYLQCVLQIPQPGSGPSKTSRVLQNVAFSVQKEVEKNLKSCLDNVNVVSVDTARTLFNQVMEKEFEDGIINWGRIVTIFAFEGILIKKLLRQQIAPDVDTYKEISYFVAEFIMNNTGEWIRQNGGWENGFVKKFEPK
The experiment is described as follows: X-ray crystal structure.

The target of experiment [2] is T1, human Bfl-1 (c-myc-tagged). The experiment in a line: fluorescence anisotropy competition (FIG. 1E). Here is the method: (§1) Fluorescence polarization assays were performed in order to measure the binding abilities of the peptide constructs. […] C-myc-tagged receptors were used for all Bcl-2 homologs. Plates were mixed at room temperature for 3 h. Experiments were done in triplicate. Data were fit, as described for competition fluorescence anisotropy experiments in Foight et al. (Foight, G. W., Ryan, J. A., Gullá, S. V, Letai, A. & Keating, A. E. Designed BH3 Peptides with High Affinity and Specificity for Targeting Mcl-1 in Cells. ACS Chem. Biol. 9, 1962-8 (2014)), to a complete competitive binding model (equation 17 in Roehrl et al., 2004)(Roehrl, M. H. A., Wang, J. Y. & Wagner, G. A General Framework for Development and Data Analysis of Competitive High-Throughput Screens for Small-Molecule Inhibitors of Protein-Protein Interactions by Fluorescence Polarization^{†}. Biochemistry 43, 16056-16066 (2004)) using a Python script.
(In general: Polarisation of emitted light reports the rotation of a fluorescent probe.)

Experiment [3] deals with T1, human Bfl-1 (c-myc-tagged). The experiment in a line: competition fluorescence anisotropy against fluoresceinated Bim BH3. Here is the method:
as §1

The target of experiment [4] is T2, human Mcl-1 (c-myc-tagged) (human, UniProt Q07820 172-327).
T2 construct: c-myc-tagged in the fluorescence polarization assay; also called c-myc-Mcl-1; not shown: c-myc tag
T2 sequence (Q07820 172-327 limits assumed): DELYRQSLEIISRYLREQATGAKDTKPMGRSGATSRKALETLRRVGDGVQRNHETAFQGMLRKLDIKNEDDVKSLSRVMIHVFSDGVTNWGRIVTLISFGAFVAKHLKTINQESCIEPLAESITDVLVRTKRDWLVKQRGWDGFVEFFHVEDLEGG
The experiment is described as follows: assay not named in the sentence (competition fluorescence anisotropy elsewhere).

The record followed here is US20190185531A1 (MIT, published 2019).

A value given as a limit tells only on which side of the number the result lay.

With Ac-QWAREIGAQLRRMADDLNAQYER-NH2 (peptide, UniProt Q9BXH1 132-154, looked up, domain: BH3) [Puma BH3 peptide (23 residues)], the binding result in experiment [1] is given as “binds”. For the molecule Ac-QWVREIAAQLRRMADDLNAQYER-NH2 (also called PUMA/FS2 chimeric peptides) [PUMA/FS2 chimeric peptide: PUMA with larger residues at positions A2 and E2], the “fold increase in affinity against PUMA” value in experiment [2] stood at 2.3 fold. The Ki is the equilibrium dissociation constant of an inhibitor or competing ligand from its target. A lower Ki goes with higher affinity. Turning to Ac-QWVREIAAGLRLAADNVNAQLER-NH2 [FS1], the Ki in experiment [3] worked out at 15 nM.

For the molecule Ac-QWVREIAAGLRRAADDVNAQVER-NH2 [FS2], the “fold increase in affinity against the chimera with smaller residues at G2, D3, A4 and E4” value in experiment [2] was 28.6 fold. The “fold weaker than binding to Bfl-1” value in experiment [4] was above 100 fold. For the molecule Ac-QWAREIGAGLRRAADDVNAQVER-NH2 (also called PUMA/FS2 chimeric peptides) [PUMA/FS2 chimeric peptide: PUMA with smaller residues at positions G2, D3, A4 and E4], the binding result in experiment [2] was “binds”.
